1 sequence from US20190375786A1, “STABLE PEPTIDES AND METHODS OF USE THEREOF” (Fred Hutchinson Cancer Research Center, priority 2016, published 2019) can be followed below.

The nature of data set [1]: Resistance to reduction by DTT, RP-HPLC. Type of data set: physicochemical. Particulars: 10 mM DTT; HPLC vs non-reduced peptide. The method in brief: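 Peptide (12.5 μg from a 2 mg/ml stock, or 0.015 mM final in PBS) was held 30 min at room temperature with or without 10 mM DTT. Reduced and non-reduced forms were compared by C-18 RP-HPLC using a 5–45% acetonitrile/0.1% TFA gradient over 10 min, with detection at 214 and 280 nm.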

Data set [2] is described as follows: SYPRO Orange melting assay. The conditions noted are these: heating from 20° C. to 95° C. It counts as physicochemical. The procedure: Protein secondary structures were assessed using Circular Dichrosim (CD). CD spectra were measured with a Jasco J-720W spectropolarimeter using a 1.0 mm path length cell. Protein samples in 10 mM phosphate buffer (pH=7.4) were at 25-30 μM protein concentration. Samples were analyzed at wavelength ranges of […]. Data were expressed in terms of relative ellipticity [θ]; (mdeg). To determine thermal stability of proteins, samples were subjected to incremental increase in temperature at a ramp of 2° C./min from 20° C. to 95° C. Stability and protein unfolding were monitored at 220 and 215 for α-helix and β-sheet secondary structures, respectively. Data are expressed in terms of relative ellipticity [θ], reported in mdeg. For SEQ ID NO: 43 and its point mutant variants, no changes to the α-helix-dominated structure were observed upon heating up to 95° C. […] Additionally, protein melting temperature (Tm) determination was performed by monitoring protein unfolding using SYPRO Orange dye (Molecular Probes). In brief, 0.1 mg/mL protein sample in 20 μL total volume PBS buffer were mixed with 24, of 10× SYPRO Orange dye. Dye intercalation into the hydrophobic protein core following protein unfolding was assayed using the C1000 Touch Thermal Cycler with CFX96 Deep Well Real-Time System (BioRad). Samples were heated from 20° C. to 95° C. with stepwise increments of 0.5° C. per minute and a 5 sec hold step for every point, followed by fluorescence reading. Tm were calculated by analyzing the derivatives of Relative florescence Units (RFU). FIG. 17D illustrates this SYPRO Orange melting assay of Peptides.

With “GSPDEYIERAKECCKKQDIQCCLRIFDESKDPNVMLICLFCW [SEQ ID NO: 43]”, in data set [1], the “resistance to reduction by DTT (in words)” value was “partially resistant”. Also, in data set [2], the “melting temperature (Tm)” value is “no melting temperature could be determined”.
